{"source": "paper PMC9599297", "about": "“Graphitic Carbon Nitride and IGZO Bio-FET for Rapid Diagnosis of Myocardial Infarction”", "binders": {"B1": {"name": "Tro4 anti-cTnI DNA aptamer (ssDNA)", "DNA": "CGTGCAGTACGCCAACCTTTCTCATGCGCTGCCCCTTA", "modifications": "ThiC6 (thiol-C6) at 5' end, immobilised on Au NPs"}}, "biological_target": "cardiac troponin I (cTnI) (UniProt P19429 2-210)", "sequence (P19429 2-210)": "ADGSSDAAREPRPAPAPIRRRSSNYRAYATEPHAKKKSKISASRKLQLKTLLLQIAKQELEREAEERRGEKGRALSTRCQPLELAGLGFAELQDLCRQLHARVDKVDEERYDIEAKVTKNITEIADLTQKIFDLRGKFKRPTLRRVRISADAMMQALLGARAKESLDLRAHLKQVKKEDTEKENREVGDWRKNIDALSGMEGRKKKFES", "test": "FET aptasensor (IGZO/PCN-Au NPs), drain current change; 47% current change; response 0.01-1000 ng/mL, LOD 0.0066 ng/mL (no Kd); 10 mM PBS pH 7.4 (PBS tablets: 2.7 mM KCl, 137 mM NaCl), 10 min incubation, water wash; surface blocked with MCH and 0.10 mg/mL BSA; temperature not stated", "conditions": "protein: commercial", "data": [{"binder": "B1", "values": [{"measurement": "binding result", "result": "binds"}]}]}
